Source: a protein production outcome set (Wang et al. 2014)

Assay: label from the status in PepcDB records

| Sequence | protein production |
| --- | --- |
| MSAEEKNLIEILEEGHKVDVVKYIDYVSAPQAGAIATFSGTTRDMFEGKTVLELRYEAYVPMATRCLSSICTTARSTWDIHKIAVAHRLGPVPVGETSVLIAVSSVHRADGLDACKFLIDELKASVPIWKKEVYTNGEIWKENSEFMEKRLELAEKRDSIVKKTVVEEHRRRGCCGSKVRVEEDEEHKDITGDNKSSS | failed |
| VHCLFVGAGSIAAEYAAELADSPLSLAGVCDLEEDRATALAAAHDCPAFTDLDTALSAVDAPLVVNLTNHAAHAPVTRTALEAGRHVYSQKPLALDEAAAAELLALAQDRNLALGCAPGTPDAPSQRRAGQMLADGRMGPVQLGYAHAHVGRV | failed |
| MWPASRCASDSSLQCGRPNDRIPMSDIAVLINTAVAVLAAVLLIVRFRVNPVISLILASVYLGLAVGLGVEKTVKTITGGFGEIMVDVGLLIAFGVLMGSILNQSGAIRRLVEHLLKTFGPKRLPYTMGLAIGTVLQSIFLDVLLVISAPLARKLAPKIGKLGTARMATAMAIALECGIVFTVPGVASLALAGLLNVPLGKMLLFGLLLVIPTIIISIAIMTFLFRRGFWNEAKDEDHTFVAEEDSEGEEPTDGGAATVPPTANSERGTAASSAQPAGGSVAVVERERKEAPLILLFAPLLTSLLLIGAGAILEILEISMPWLQLLGEPVIALLIGLIGTCLVTRAAIGQKKVEEAIAVGFKESGQILILTGVGGSLAATVAAAGLGDILGGFFSASTVAPLLVVWAIAAVLHIAVGSVTLSAITAAGLLAPIAPAIGLDPVLLALAAGAGSLFMVHVTSNTFWLLQSLLGQSVRGALKSVTVGVSVASVVAILLILPMSLLF | failed |
| MLDRLLGRVHDTKHAAPILRGYLWWGLLLRAVLLLALGTLLVVEGNVLAEWLLTVRPPALPQEDVEELTAVSYTVIVVLLMVGTGARWQLLRRLEAAEAVPESAPSSAEEAPPLGR | failed |
| MAHEAQKAIARNSLLIRSLPEQHVDALLSQAVWRSYDRGETLFLQEEKAQAIHVVIDGWVKLFRMTPTGSEAVVSVFTRGESFGEAVALRNTPYPVSAEAVTPCEVMHIPSPVFVSLMRRDPEICISILATTFGHLHSLVAQLEQLKAQTGAQRVAEFLLELCDCDTGACEVTLPYDKMLIAGRLGMKPESLSRAFSRLKAAGVTVKRNHAEIEDIALLRDYAESDPADSWSKS | not failed |
| MDGVFRLLLGRFIQRGTIIFTTAGGTTFTCGDGTGEQVHARLTSPLAQRRLLLDPELALGEIYMDGGLVMQQGSIADLLAVAMGQPDWTPRWAKLHGLVRYWIRTLHQFNPRSRSRNNVAHHYDLDGRLYALFLDSDKQYSCAYFETPDANLDDAQLAKKRHVAAKLLTTPGQRVLDIGSGWGGLGLYLAETCGADVTGVTLSREQLQAANTRAAERGLADRARFLLQDYRDVPGPFDRIVSVGMFEHVGVDHYDTYFRRCAELLKDDGVMLLHSIGRSEGPGFTNPWIAKYIFPGGYLPALSEVLPAIERAGLLVCDIEILRLHYAETLKAWRERFLAHREEAERLYDARFVRMWEFYLAASEMSFRKQNTMVFQIQLTRRQGVVPITRDYIAAEEKRLRGMEKSRTPRLQLAGE | failed |
| MLKRASFVEVDTASLRHNFSAVKSIVPKDACVMAVVKANAYGAGAIKASEIFLQEGANYLGVATLDEALELRSHFSKTPILILGYSPNANASMLVDNDLSAMIFSLEQAEVFSQMALKSQKRLKVHIKIDTGMHRLGLEPNFKSIETIKKIRALKGLEIEGIFTHLSNADAKIKTHAKNQMKAFNAFLEQLLDQKIEFQYRHAYNSAGILSLCNGNENRLLNLYRPGIMLYGFYPSNGMKESCPTILKNVISLKAQIVQIRSVKKGEFIGYGEHFYTNEETLVGVLALGYADGLMRALGNRIQVAINNQLAPLIGKVCMDQCFVKLNNIQAKEGDEVILFGDKSAKANDASEIXALLNTIAYETISTLSKRLERVYI | failed |
| MTFPVIGVVGGGQLARMMAPPATALGFELRVLAEGEDVSAVAAVATAPIGDYKDLDALLEFSKGLDVMTFDHEHVPTQHLQALLDAGVNVQPGPDALVNAQDKLVMRAAIDRLGLPNPEWSAVNTVDELVAFGERIGWPVVLKTPRGGYDGKGVRMVDSADDALETADWFQAMSPLLAEAKVEFSRELSALVARSPSGESRAWPVVHTIQVDGVCDEVIAPAQNISVEVAAAAEEAALRIANELGVTGVMAAELFETPGVGVGFLINELAMRPHNTGHWTQDGSITSQFEQHLRAVLDLPLGATDALAPVVVMKNFLGGDNQDLFKAFPMALAFEPAAKVHSYGKSVRPGRKIGHVNLVGSSVSDVDSVRQRATAVANIIRDGRKPEQTTLEETA | failed |
| MARESRTNPRAAGRNALGARRFWFVSLAGIVLASGYDILQALQGSAAAAQRLVVPVLLLLWLYRGSDWARWILMVMLLGFGVLNMYLGTGMLRYGVQNWLHIYVFSAFMVATGLYLALAGKDFARYRSHVAARRARRAASQG | failed |
| MRNGILYAILLYVFMFVLWFCFAYFIDTSTTIFNIPLWFFLSGILFPSIIFFWFVFLF | failed |
| MRLIEQAIEKIESGQVTEGLTALEEAAKTANHEMKYTVAETYYELGHLDKAQAIIDELLMLYPDEGGLYTFAAEILIDLNKEDEAIEMLNEIKEQDPAFLQAQLLLADLYQLQSLDEVAEQKLLKAYEVAPDEPIISFGLGEFYLERGDYIKSIPHLKRAKHGGLTNDQVNVSLKLAEAYSGSGQFEEALPHYDEGLKQKLDPHGLFGYGYTAYLLGDYVLAIEQFQALKALDPDFYDPIPVFGEGFRRGKSFRGSNGCFKRGDDRGLEHHHHHH | not failed |
| QNYWAVFDANKETLIVQTCSGLGLTAIDHLYPPHILPLDTDNETLGTTVLQALANSRTFVYDSPEDQDFFDTEKIRQRYEDWVAKLCGNLGYKTRRALFKNMMSVDIWLHNGCLKISPSRHVKLEAWNAIDADDVILSLDNSPEEIGAGLKLALSHC | failed |
| VVKVALFVRLEAKPGKEKEVESFLMGGLPIVNEEPATTAWFGIRLGPSTFGIFDAFPNEAGRQAHLSGKVAAALMAKAGELFSEPPSIEKVDILAAKLPG | failed |
| MGSGGVVHCRCAKCFCYPTKRRIRRRPRNLTILSLPEDVLFHILKWLSVEDILAVRAVHSQLKDLVDNHASVWACASFQELWPSPGNLKLFERAAEKGNFEAAVKLGIAYLYNEGLSVSDEARAEVNGLKASRFFSLAERLNVGAAPFIWLFIRPPWSVSGSCCKAVVHESLRAECQLQRTHKASILHCLGRVLSLFEDEEKQQQAHDLFEEAAHQGCLTSSYLLWESDRRTDVSDPGRCLHSFRKLRDYAAKGCWEAQLSLAKACANANQLGLEVRASSEIVCQLFQASQAVSKQQVFSVQKGLNDTMRYILIDWLVEVATMKDFTSLCLHLTVECVDRYLRRRLVPRYRLQLLGIACMVICTRFISKEILTIREAVWLTDNTYKYEDLVRMMGEIVSALEGKIRVPTVVDYKEVLLTLVPVELRTQHLCSFLCELSLLHTSLSAYAPARLAAAALLLARLTHGQTQPWTTQLWDLTGFSYEDLIPCVLSLHKKCFHDDAPKDYRQVSLTAVKQRFEDKRYGEISQEEVLSYSQLCAALGVTQDSPDPPTFLSTGEIHAFLSSPSGRRTKRKRENSLQEDRGSFVTTPTAELSSQEETLLGSFLDWSLDCCSGYEGDQESEGEKEGDVTAPSGILDVTVVYLNPEQHCCQESSDEEACPEDKGPQDPQALALDTQIPATPGPKPLVRTSREPGKDVTTSGYSSVSTASPTSSVDGGLGALPQPTSVLSLDSDSHTQPCHHQARKSCLQCRPPSPPESSVPQQQVKRINLCIHSEEEDMNLGLVRL | failed |
| MTIAPTTLLLFAATALAELVGCYLPYLWLRKGGSVWLLLPTALSLAVFVWLLSLHPEASGRVYAAYGGVYIASALLWLWWVDGVTPTRWDLLGAACCLLGMAVIMFSPRSA | failed |
| LAPPRHLGFSDVSHDAARVFWEGAPRPVRLVRVTYVSSEGGHSGQTEAPGNATSAMLGPLSSSTTYTVRVTCLYPGGGSSTLTGRVTTKKAPSPS | not failed |
| MYLNPKLSYMQFFMGFLFVITFILATFNICSYLVAIVCMALLNLTFVIGAFQQKQYTSFVIALVMSFSFSIVAIVFYIK | failed |
| MRIRLFAFCLLLGGCQSQLPPLPDWQSPEGRDDPQTGRIVELRSGVTLSPQQLVARLAAAPRVIVGEKHDNPDHHAVELWLAQALGEYRAQGSLLLEMLDPGQQPRVDAVRAQLGNGKPVANLEEALDWQKGWDWTQYGPLVSWAVAQPAPLLAANLQRSEIMRIYRERPPLPGTASRRDSVRLPLLAQIRESHCGMLPDDQLPAMLAVQQQRDRRMAERLRDAPRPAMLVAGSFHARRDLGVPVHLRDLGAEKGTQVLMLVEAGQAVTTREADYAWYTPAQPDKDYCAEMKKARLEHHHHHH | failed |
| MTEFTTLLQQGNAWFFIPSAILLGALHGLEPGHSKTMMAAFIIAIKGTIKQAVMLGLAATISHTAVVWLIAFGGMVISKRFTAQSAEPWLQLISAVIIISTAFWMFWRTWRGERNWLENMHGHDYEHHHHDHEHHHDHGHHHHHEHGEYQDAHARAHANDIKRRFDGREVTNWQILLFGLTGGLIPCPAAITVLLICIQLKALTLGATLVVSFSIGLALTLVTVGVGAAISVQQVAKRWSGFNTLAKRAPYFSSLLIGLVGVYMGVHGFMGIMR | failed |
| MLKTVKLYARKAWNWLTSMRTALALLFLLAIAAIPGALLPQRSLNESNVIEYIENNGKLAEFYDKIQLFDVFSSTWFTAIYVLLLISLVGCILPRSWEHYKAMRAPVVRAPRNLERLAHNGEGLVEKREEEVEKDARKLLKGWKITEYSAEEDRAGVRSIAAEKGYTRELFNLIFHLGIVGMIVTAGLGRLFYYEGHVIVVTDGEQNQQNSVFCNTATANYDSFRAGANFDGTGLTTFCFEAHDFSADYLANGQAEMFRSNISYAVGDDIQNDPETWEDYELRVNHPLRIEGDRVYLQGHGFAPTFTVTWPNGETRTQTVQWRPDDPTFFLSSGVVRFDPPAGMYPDLYERRQNQLAIQGLFAPTAEWEGDNNELLTSSYPAMRDPAVAIDIYRGDNGLDTGIGQSLFSLDSSLMHSGVLQKIERVNLQIGDTVTLDDGTTVSFDGASEFANYQISRDPTQNWVLVTTVISLVSLVGSLMIRRRRIWVRFYPQENGTTRVETGGLARTDRAGWGGEYEKFHRELLGLKEEDEDEEYFDHDD | failed |
| MMGIMSDPITILDSSDSLSRLSSESVGRLVVHRKDDLDIFPVNFVLDYSAEQPRVYFRTAEGTKLFSVNLNSDVLFEVDRFDDAEGWSVVLKGNAYVVRDTEEARHADTLGLKPWLPTLKYNFVRIDVREVSGRAFVFGEEPERY | not failed |
| MFDLSSIVDNEQTSDALEDVVMGLIINAGQARSLAYNALKQAKAGDFAQADELMAQSRSALNDAHLVQTQLIEADQGEGKTKVTLVLVHAQDHLMNAMLARELITELIELHQKIQ | failed |
| MVNLGAMLFRGRGVKLSQQFAVIGLGRFGRGVCETLHGMGYEVLGSDNQERLVNQVLQDHIVDHAIQLDATDPQALKEAGIFEFETVIVAIGNHLDASIITTLNLKEAGVPKVIAKASSEVHKKLLERVGADRVVFPEYEAGCELARSLTRPAILDCLNLDPQKSIVEVKVPEAFHGRTVAEVELRSRYGLNLIALRFDDKFEINPSPSQKLHQGDIMVVIGDNNDIERFLRSQHVH | failed |
| MIPPELDMSLLLEFIGANEGTGHFKPLEKKFVRVSGEATIGHVEKFLRRKMGLDPACQVDIICGDHLLEQYQTLREIRRAIGDAAMQDGLLVLHYGLVVSP | not failed |
